± gives the standard deviation of the averaged measurements.
B1: library; a variant is named by its letters at N, in order (parent)
chain: GCUGUCACCGAGAAACUGUGAAGUAUAUCUUAAACCUGGGCACUUAAAAGAUAUAUGGAGUUAGUAGUGCAACCUGCUCGGUCUGAUGAGUCCNNNNNNGGACGAAACAGC

How the values were obtained:
cyclic di-GMP [1] = variants of: B1; assay: normalized RNA/DNA level without ligand (relative to sTRSVctl = 100) (log10 (% of sTRSVctl)); HEK293T; ligand: cyclic di-GMP (c-di-GMP-II aptamer); higher = less ribozyme self-cleavage, higher mRNA level; details: reporter: mCherry (pCS4076), ligand present: no
Summary of the method: (§1)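 Ribozyme switch library plasmids linked to reporters were introduced into HEK293T cells at 4 µg per 6-well well, with ligand, if any, added 1 h before. Total RNA was extracted with EDTA 72 h later, reverse-transcribed, amplified, barcoded and sequenced. RNA level was computed from RNA over DNA reads relative to a spiked-in non-cleaving sequence or the top sequences, then scaled and log-transformed. The top set was 25 sequences, values were ×100 and log10, and the cutoff was ≥100 DNA reads.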

cyclic di-GMP [2] = variants of: B1; assay: normalized RNA/DNA level with ligand (relative to sTRSVctl = 100) (log10 (% of sTRSVctl)); HEK293T; ligand: cyclic di-GMP (c-di-GMP-II aptamer); ligand concentration (+) RNA-Seq: 1 mM; higher = less ribozyme self-cleavage, higher mRNA level; details: reporter: mCherry (pCS4076), ligand present: yes
Summary of the method: as §1

Variant	normalized RNA/DNA level without ligand (log10) (cyclic di-GMP [1])	normalized RNA/DNA level with ligand (log10) (cyclic di-GMP [2])
ACCGCU	1.7 ± 0.028	1.86 ± 0.12
ACCGCG	1.72 ± 0.075	1.87 ± 0.099
ACCGCC	1.74 ± 0.057	1.89 ± 0.095
ACCGCA	1.667 ± 0.015	1.8 ± 0.11
ACCGAG	1.57 ± 0.031	1.74 ± 0.11
ACCGAC	1.61 ± 0.06	1.77 ± 0.11
ACCGAU	1.48 ± 0.072	1.67 ± 0.091
GCCGAG	1.65 ± 0.031	1.72 ± 0.091
GCCGGG	1.86 ± 0.089	1.93 ± 0.13
GCCGGA	1.55 ± 0.041	1.7 ± 0.11
GCCGGC	1.56 ± 0.035	1.74 ± 0.2
CCCGCA	1.66 ± 0.037	1.8 ± 0.08
CCCGCC	1.8 ± 0.13	1.92 ± 0.16
CCCGCG	1.79 ± 0.046	1.9 ± 0.044
CCCGCU	1.74 ± 0.024	1.88 ± 0.11
GCCGCG	1.79 ± 0.03	1.92 ± 0.07
GCCGCC	1.72 ± 0.033	1.82 ± 0.075
GCCGCA	1.74 ± 0.0018	1.84 ± 0.14
CCCCUC	1.73 ± 0.0095	1.87 ± 0.079
CCCGGA	1.48 ± 0.075	1.72 ± 0.13

Variant	normalized RNA/DNA level without ligand (log10) (cyclic di-GMP [1])	normalized RNA/DNA level with ligand (log10) (cyclic di-GMP [2])
CCCGGG	1.7187 ± 0.00061	1.91 ± 0.14
CCCGGC	1.75 ± 0.031	1.88 ± 0.07
CCCGUG	1.62 ± 0.024	1.8 ± 0.09
UCCGUG	1.73 ± 0.033	1.85 ± 0.11
UCCGUC	1.75 ± 0.018	1.9 ± 0.14
UCCGUA	1.51 ± 0.1	1.7 ± 0.084
CCCCGA	1.6835 ± 0.00018	1.84 ± 0.13
CCCCGG	1.83 ± 0.049	1.94 ± 0.11
CCCCGU	1.76 ± 0.021	1.88 ± 0.14
CCCCGC	1.77 ± 0.03	1.88 ± 0.11
CCCCCU	1.704 ± 0.0062	1.86 ± 0.13
CCCCCC	1.82 ± 0.043	1.93 ± 0.12
CCCCCG	1.79 ± 0.027	1.84 ± 0.071
UCCGGU	1.67 ± 0.024	1.85 ± 0.1
UCCGGG	1.852 ± 0.016	1.93 ± 0.06
UCCGGC	1.79 ± 0.062	1.95 ± 0.12
UCCGGA	1.606 ± 0.0039	1.8 ± 0.096
CCCCAA	1.59 ± 0.018	1.76 ± 0.14
CCCCAG	1.679 ± 0.008	1.82 ± 0.11
UCCCGA	1.77 ± 0.059	1.87 ± 0.1

Variant	normalized RNA/DNA level without ligand (log10) (cyclic di-GMP [1])	normalized RNA/DNA level with ligand (log10) (cyclic di-GMP [2])
UCCCGC	1.801 ± 0.018	1.91 ± 0.1
UCCCGG	1.855 ± 0.016	1.93 ± 0.069
UCCCAU	1.71 ± 0.02	1.85 ± 0.16
UCCCAC	1.758 ± 0.0044	1.87 ± 0.097
UCCCAG	1.79 ± 0.048	1.9 ± 0.089
UCCCAA	1.6799 ± 0.00075	1.84 ± 0.077
CCCAUC	1.728 ± 0.0037	1.84 ± 0.14
CCCAUG	1.53 ± 0.08	1.73 ± 0.13
GCCAUC	1.564 ± 0.0079	1.77 ± 0.074
GCCAUG	1.59 ± 0.051	1.79 ± 0.066
ACCCGG	1.7 ± 0.022	1.86 ± 0.099
ACCCGU	1.73 ± 0.023	1.84 ± 0.08
ACCCGA	1.54 ± 0.039	1.73 ± 0.13
GCCCGU	1.73 ± 0.048	1.84 ± 0.14
GCCCGC	1.76 ± 0.04	1.86 ± 0.15
GCCCGA	1.62 ± 0.052	1.79 ± 0.079
ACCCAA	1.56 ± 0.03	1.74 ± 0.15
ACCCAG	1.777 ± 0.0092	1.86 ± 0.06

— the supplement of paper PMC6757056
